Measurements taken from patent US20050063948A1 (published 2005).

Target: T1, αvβ3 integrin on the surface of M21 human melanoma cells (human, UniProt P06756 31-1048; P05106 27-788)
T1 construct: whole, on cells; also called αvβ3 integrin heterodimer
Test: immunofluorescence on M21 cells, detected with anti-mouse IL-12 p40 antibody and FITC secondary
Source text: The specificity of mrIL-12vp binding to αᵥβ₃ integrin-positive cell lines was subsequently determined. M21, a human melanoma line which expresses αᵥβ₃ integrin on its surface (Felding-Habermann, et al. (1992) J. Clin. Invest. 89:2018-2022), was used as a αᵥβ₃ integrin-positive cell line for this analysis. Prior to the studies with mrIL-12vp, the expression of αᵥβ₃ integrin was confirmed based on intense labeling of M21 cells with the anti-αᵥβ₃ integrin antibody LM609 using flow cytometry. […] Immunofluorescence evaluation of cells grown on chamber slides confirmed specific binding of mrIL-12vp, but not mrIL-12 to M21 cells. There was no binding of mrIL-12 or mrIL-12vp to Saos-2 cells.
Immunofluorescence labeling was performed in accordance with standard methods (Teng, et al. (2002) Am. J. Physiol. Renal Physiol. 282:F1075-F1083). M21 or Saos-2 cells were incubated with 5 μg of either mrIL-12 or mrIL-12vp for 30 minutes at 37 C in a 5% CO₂ atmosphere. The cells were rinsed with PBS, and then fixed with freshly prepared 4% paraformaldehyde for 10 minutes at room temperature. Detection of mrIL-12 or mrIL-12vp binding to cells used an anti-mouse IL-12 p40 antibody, followed by three washes with PBS and incubation with FITC-conjugated goat anti-mouse IgG (1:200) for 1 hour in the dark. As a control, anti-mouse IL-12 p40 was omitted from the labeling process.

T1 sequence (P06756 31-1048, chain 1 of 2): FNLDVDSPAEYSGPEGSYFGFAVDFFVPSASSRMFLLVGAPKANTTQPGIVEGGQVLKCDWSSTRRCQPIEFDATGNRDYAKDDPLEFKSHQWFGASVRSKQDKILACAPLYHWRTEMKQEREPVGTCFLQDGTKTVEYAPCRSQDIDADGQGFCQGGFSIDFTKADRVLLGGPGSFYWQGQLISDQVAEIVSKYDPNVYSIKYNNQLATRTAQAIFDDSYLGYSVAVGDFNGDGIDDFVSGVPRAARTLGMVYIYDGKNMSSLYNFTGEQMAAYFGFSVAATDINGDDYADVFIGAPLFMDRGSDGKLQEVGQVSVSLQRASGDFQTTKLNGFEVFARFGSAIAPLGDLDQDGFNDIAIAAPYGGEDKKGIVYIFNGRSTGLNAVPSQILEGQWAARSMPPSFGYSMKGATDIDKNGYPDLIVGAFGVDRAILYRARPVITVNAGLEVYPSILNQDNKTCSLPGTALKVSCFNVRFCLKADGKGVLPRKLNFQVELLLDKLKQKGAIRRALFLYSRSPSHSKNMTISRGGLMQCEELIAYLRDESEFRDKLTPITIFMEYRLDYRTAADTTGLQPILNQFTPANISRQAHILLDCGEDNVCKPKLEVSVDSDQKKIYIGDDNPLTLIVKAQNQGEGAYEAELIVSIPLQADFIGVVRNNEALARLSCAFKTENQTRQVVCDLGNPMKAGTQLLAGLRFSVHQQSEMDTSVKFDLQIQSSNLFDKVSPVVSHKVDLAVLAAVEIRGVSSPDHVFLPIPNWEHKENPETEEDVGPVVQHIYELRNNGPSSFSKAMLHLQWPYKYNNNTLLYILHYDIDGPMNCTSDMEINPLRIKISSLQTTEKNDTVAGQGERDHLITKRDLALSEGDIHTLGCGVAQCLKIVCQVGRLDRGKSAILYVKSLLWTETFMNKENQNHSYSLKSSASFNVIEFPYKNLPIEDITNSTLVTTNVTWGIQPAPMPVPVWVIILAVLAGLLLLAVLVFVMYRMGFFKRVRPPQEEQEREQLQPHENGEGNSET
T1 sequence (P05106 27-788, chain 2 of 2): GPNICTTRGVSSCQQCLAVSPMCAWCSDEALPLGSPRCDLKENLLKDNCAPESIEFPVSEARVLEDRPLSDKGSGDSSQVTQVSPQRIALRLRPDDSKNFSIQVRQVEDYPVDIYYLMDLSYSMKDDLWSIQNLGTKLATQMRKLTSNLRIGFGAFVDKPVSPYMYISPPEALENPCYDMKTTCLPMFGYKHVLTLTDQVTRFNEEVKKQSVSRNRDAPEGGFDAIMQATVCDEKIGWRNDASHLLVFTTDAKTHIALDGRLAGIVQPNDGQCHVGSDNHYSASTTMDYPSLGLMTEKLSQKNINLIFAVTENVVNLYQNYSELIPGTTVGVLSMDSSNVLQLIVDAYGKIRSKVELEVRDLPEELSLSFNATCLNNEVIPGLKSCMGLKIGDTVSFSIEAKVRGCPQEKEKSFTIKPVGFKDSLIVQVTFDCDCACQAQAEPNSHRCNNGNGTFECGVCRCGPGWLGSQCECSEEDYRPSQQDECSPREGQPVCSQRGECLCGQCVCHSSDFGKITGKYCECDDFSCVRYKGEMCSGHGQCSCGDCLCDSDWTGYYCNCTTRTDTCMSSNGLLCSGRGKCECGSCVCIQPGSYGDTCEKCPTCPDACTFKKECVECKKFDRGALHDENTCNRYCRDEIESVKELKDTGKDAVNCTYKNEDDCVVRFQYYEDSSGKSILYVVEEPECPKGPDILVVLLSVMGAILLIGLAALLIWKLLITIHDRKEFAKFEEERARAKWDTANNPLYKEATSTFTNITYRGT

B1: murine recombinant IL-12 (mrIL-12) (ligand, mouse)
chain 1: RVIPVSGPARCLSQSRNLLKTTDDMVKTAREKLKHYSCTAEDIDHEDITRDQTSTLKTCLPLELHKNESCLATRETSSTTRGSCLPPQKTSLMMTLCLGSIYEDLKMYQTEFQAINAALQNHNHQQIILDKGMLVAIDELMQSLNHNGETLRQKPPVGEADPYRVKMKLCILLHAFSTRVVTINRVMGYLSSA
chain 2: MWELEKDVYVVEVDWTPDAPGETVNLTCDTPEEDDITWTSDQRHGVIGSGKTLTITVKEFLDAGQYTCHKGGETLSHSHLLLHKKENGIWSTEILKNFKNKTFLKCEAPNYSGRFTCSWLVQRNMDLKFNIKSSSSSPDSRAVTCGMASLSAEKVTLDQRDYEKYSVSCQEDVTCPTAEETLPIELALEARQQNKYENYSTSFFIRDIIKPDPPKNLQMKPLKNSQVEVSWEYPDSWSTPHSYFSLKFFVRIQRKKEKMKETEEGCNQKGAFLVEKTSTEVQCKGGNVCVQAQDRYYNSSCSKWACVPCRVRS
notes: Bought
B1: no binding (tested: 5 µg).
